In patent publication US10202627B2, “Method for producing trehangelin” (THE KITASATO INSTITUTE, priority 2016, dated 2019):

Key:
[1] = tested on: animal cells (particularly, human cells); conditions: cited from earlier work
[2] = 3-ketoacyl-CoA synthase activity of recombinant OrfB, LC/MS; format: biochemical; conditions: 2.5 μg orfB, 250 μM acetyl-CoA, 250 μM methylmalonyl-CoA, pH 7.5, 27° C., 16 hours
Description: (§1) A substrate of the target enzyme is added to the reaction solution. Specifically, in a 3-ketoacyl-CoA synthase activity assay, acetyl-CoA and methylmalonyl-CoA are added. In a 3-ketoacyl-CoA reductase activity assay, 2-methylacetoacetyl-CoA is added. In an enoyl-CoA hydratase activity assay, 3-hydroxy-2-methylbutyryl-CoA is added. In an acyltransferase activity assay, angelyl-CoA is added. The concentration of the substrate may be any concentration as far as it has no effect on the reaction, and is suitably 0.01 mM to 0.2 M of the reaction solution. The enzyme concentration for the reaction is not particularly limited, and is usually in a range of 0.001 mg/ml to 100 mg/ml.
(§2) The activity may be detected by a method that can measure a decrease of substrates or an increase of reaction products during the reaction. Examples of such methods include a method that separates and quantifies a target substance optionally by using thin layer chromatography, column chromatography, high-performance liquid chromatography (HPLC) and the like. […]
Next, it was examined whether the obtained recombinant enzyme protein (OrfB) catalyses production of 2-methylacetoacetyl-CoA from acetyl-CoA and methylmalonyl-CoA by employing the following reaction conditions. […] After termination of the reaction by adding 100 μl of methanol, it was analysed on LC/MS.

[3] = 3-ketoacyl-CoA reductase activity of recombinant OrfD, LC/MS; format: biochemical; conditions: 0.8 μg orfD with 2.5 μg orfB, 500 μM NADPH, pH 7.5, 27° C., 16 hours
Description: as §1, §2
Next, it was examined whether the obtained recombinant enzyme protein (OrfD) catalysed production of 3-hydroxy-2-methylbutyryl-CoA from 2-methylacetoacetyl-CoA by employing the following reaction conditions. […] After termination of the reaction by adding 100 μl of methanol, it was analysed on LC/MS.

[4] = acyltransferase activity of OrfC inferred from Streptomyces albus/pOSV556-orfABCD culture; format: cell-based, Streptomyces albus J1074; conditions: inferred from Examples 1 to 4
Description: Streptomyces albus/pOSV556-orfABCD was grown by shake culture in 10 ml of a liquid medium containing 1% yeast extract and 1% glucose at 27° C. for 1 day, which was then added 1 ml of 20% trehalose aqueous solution, and the shake culture was continued at 27° C. for 4 more days. The obtained culture medium was added 10 ml of ethanol and stirred for 1 hour. Ethanol in the extract was then removed by distillation under reduced pressure, and 5 ml of ethyl acetate was added to the obtained aqueous solution, which was thoroughly stirred, and then the ethyl acetate phase was collected. After concentration to dryness, the solid was dissolved in 100 μl of methanol and analysed on LC/MS to confirm production of trehangelin (FIG. 1).

[5] = enoyl-CoA hydratase activity of recombinant OrfA, LC/MS; format: biochemical; conditions: 15.8 μg orfA with orfB and orfD, 500 μM NADPH, pH 7.5, 27° C., 16 hours
Description: as §1, §2
Next, it was examined whether the obtained recombinant enzyme protein (OrfA) catalysed production of angelyl-CoA from 3-hydroxy-2-methylbutyryl-CoA by employing the following reaction conditions. […] After termination of the reaction by adding 100 μl of methanol, it was analysed on LC/MS.

C/C=C(/C)C(=O)OC1C(O)C(CO)OC(OC2OC(CO)C(O)C(OC(=O)/C(C)=C\C)C2O)C1O (stereo not drawn) [Trehangelin A]
toxicity towards animal cells (particularly, human cells) [1]: do not exhibit toxicity

C/C=C(/C)C(=O)OC1C(OC2OC(CO)C(O)C(OC(=O)/C(C)=C\C)C2O)OC(CO)C(O)C1O (stereo not drawn) [Trehangelin B]
toxicity towards animal cells (particularly, human cells) [1]: do not exhibit toxicity

B1: OrfB: enzyme protein encoded by SEQ ID NO: 4, 3-ketoacyl-CoA synthase from Polymorphospora rubra K07-0510 (protein)
chain: MSTSTVIGTGSYLPRRVLSSGELARRVGVAENWIVEKTGIRERRVAADEEATSDLATRAARRALRTARLDPADVDLIVLATSTPDRPMPATASTVQANLGARQAVAFDVDAVCSGFVYALVVAHSMLNSEGWARTALVIGADTYSRVLDYTDRRTAVLFGDGAGAVVLGRETGGGSGIRATTLGTDGTLADLVQIPAGGSRRPASAQTVEAGDHYFAMRGGDVRRLANQVFPALVGQLLKAASLDLDQVDLIAAHQANGTMLTDWSRDLGLRPGVLHRTVERYGNTGAASVPVTLDDAVRTGRLGAAATLLMVAFGGGMTWGGVALDWSADPSVPRSNCVR
modifications: Polymorphospora rubra K07-0510; CDS (1)..(1026)
production of 2-methylacetoacetyl-CoA from acetyl-CoA and methylmalonyl-CoA [2]: production of 2-methylacetoacetyl-CoA was observed

B2: OrfD: enzyme protein encoded by SEQ ID NO: 8, 3-ketoacyl-CoA reductase from Polymorphospora rubra K07-0510 (protein)
chain: VTAGTGQPVVAAPGRALADRVVVVTGASRGVGRDLARVFADHGARLGLLARSRDALDDLGGTLTAAGADVLAVPCDVGEPDSLAGAVDAVAGHFGGIDSVVVNAGISPVARRAHHLPIDAWHDVLATNLTGGFVTARAAYPHLARSGRGRLVFTTSVMAATPRRGLSAYAASKAGLEGLTRALAADWAGDGILVNAVAPGFFDTGLGAAFHTSQRLHEQVVGRTPVARFGRADELAAAFVFLAGDACGYLTGQVLAVDGGYGLG
modifications: Polymorphospora rubra K07-0510; CDS (1)..(795)
production of 3-hydroxy-2-methylbutyryl-CoA from 2-methylacetoacetyl-CoA [3]: production of 3-hydroxy-2-methylbutyryl-CoA was observed

B3: OrfC: enzyme protein encoded by SEQ ID NO: 6, acyltransferase from Polymorphospora rubra K07-0510 (protein)
chain: MTTSALGAEPGATDPPAAPPVSYAPSGRMPRTINRWPRPFAPRNILGVLRARLRGATISLNQVKFDESTAERNALVMEHALLRHSHVARYAIVGPFTSLFKVRVGPYAGIAEKVTVGALPHWPELPTSHVFPVNAEFGFCAGEWPEVPGTEVGADAWIGAGAVVRAGVRIGHGAIVAAGAVVTRDVADYEIVAGVPARRLRSRFPDDLAERLVALAWWDWPPGFIKANIDLFQRPLTADTLAALEERARALPTPPGGAA
modifications: Polymorphospora rubra K07-0510; CDS (1)..(780)
acyltransferase activity (trehangelin from angelyl-CoA and trehalose) [4]: had an acyltransferase activity

B4: OrfA: enzyme protein encoded by SEQ ID NO: 2, enoyl-CoA hydratase from Polymorphospora rubra K07-0510 (protein)
chain: VTRPDAPGPPVAAPDPADAVVTAVEPYVVRATINRPARRNAIDLAVIEGLERAIDLAEATGARVLVLRGAGGTFCSGADLRVLEEMSVDPHRVETFMVRLALVLRRLETARFVSVAVVEGHAVAGGCEILLACDVSVAATDARIGDRHLEYGLVPAAGGSVRLARTLPKARGNYLLLAADLLTGEQAAQWGLVSVAVPPTDLEPRVDALVGRLVGHSADALAVVKKMVWTADHEPRPDAMSWERRLFLRHLGSEDVSEGLRAFRERRRPAFRADD
modifications: Polymorphospora rubra K07-0510; CDS (1)..(828)
production of angelyl-CoA from 3-hydroxy-2-methylbutyryl-CoA [5]: production of angelyl-CoA was observed
